According to paper PMC2670943 (Journal of molecular biology, 2009):
Where two headings read alike, the source gives them in different places.

How the values were obtained:
crystal structure [1] = target: the molecule itself; assay: crystal structure
[2] = target: T1, human GRASP55 full length (residues 1–452) (human, UniProt Q9H8Y8-1 1-452); assay: SPR
[3] = target: T2, human GRASP55 N-terminal domain (residues 1–263) (human, UniProt Q9H8Y8-1 1-263); assay: SPR
crystal structure [4] = target: the molecule itself; assay: crystal structure; remark: listed apart in the source
[5] = target: T1, human GRASP55 full length (residues …); assay: AUC
[6] = target: T2, human GRASP55 N-terminal domain …; assay: AUC
crystal structure [7] = target: the molecule itself; assay: crystal structure; remark: listed apart in the source

B1: human KCTD5 residues 34–234, seleno-methionine labeled (domain or fragment, UniProt Q9NXV2 34-234, looked up)
chain: ALAQRPGSVSKWVRLNVGGTYFLTTRQTLCRDPKSFLYRLCQADPDLDSDKDETGAYLIDRDPTYFGPVLNYLRHGKLVINKDLAEEGVLEEAEFYNITSLIKLVKDKIRERDSKTSQVPVKHVYRVLQCQEEELTQMVSTMSDGWKFEQLVSIGSSYNYGNEDQAEFLCVVSKELHNTPYGTASEPSEKAKILQERGSRM
modifications: seleno-methionine labeled (two seleno-methionine residues, M171 and M175, in the C-terminal domain)
B1 was tested, and the “stoichiometry N” value (crystal structure [1]) was 5 subunits.

B2: human KCTD5 residues 34–234 ("full length" construct for structural and binding analysis), native (domain or fragment, UniProt Q9NXV2 34-234, looked up)
chain: B1 chain
For B2, the koff [2] was 0.00103 s⁻¹, the kon [2] was 870 M⁻¹ s⁻¹ and the koff [3] was 0.00223 s⁻¹. For the same binder, the kon [3] was 2590 M⁻¹ s⁻¹, the “stoichiometry N” value (crystal structure [4]) was 5 subunits and the Kd [5] was 1.41 ± 0.26 µM. It also gave a Kd [6] of 8.26 ± 1.6 µM.

B3: human KCTD5 N-module (residues 40–145) (domain or fragment)
chain: not shown
With B3 the “stoichiometry N” value (crystal structure [7]) was 5 subunits.
